Assay results: article PMC3369482 (Biochemical Journal, 2012)
Positions count from the first letter of the chain named. Names and notes keep the numbering of the source. Where two headings read alike, the source gives them in different places. Blank lines part the entries; values can stand above or below the binder they belong to.

Legend:
Experiment in all cases: enzyme inhibition kinetics
[1] = molecular target: T1, Recombinant human ADAMTS-5 (adamalysin with thrombospondin motifs 5), full-length (human, UniProt Q9UNA0 262-930)
T1 sequence (looked up): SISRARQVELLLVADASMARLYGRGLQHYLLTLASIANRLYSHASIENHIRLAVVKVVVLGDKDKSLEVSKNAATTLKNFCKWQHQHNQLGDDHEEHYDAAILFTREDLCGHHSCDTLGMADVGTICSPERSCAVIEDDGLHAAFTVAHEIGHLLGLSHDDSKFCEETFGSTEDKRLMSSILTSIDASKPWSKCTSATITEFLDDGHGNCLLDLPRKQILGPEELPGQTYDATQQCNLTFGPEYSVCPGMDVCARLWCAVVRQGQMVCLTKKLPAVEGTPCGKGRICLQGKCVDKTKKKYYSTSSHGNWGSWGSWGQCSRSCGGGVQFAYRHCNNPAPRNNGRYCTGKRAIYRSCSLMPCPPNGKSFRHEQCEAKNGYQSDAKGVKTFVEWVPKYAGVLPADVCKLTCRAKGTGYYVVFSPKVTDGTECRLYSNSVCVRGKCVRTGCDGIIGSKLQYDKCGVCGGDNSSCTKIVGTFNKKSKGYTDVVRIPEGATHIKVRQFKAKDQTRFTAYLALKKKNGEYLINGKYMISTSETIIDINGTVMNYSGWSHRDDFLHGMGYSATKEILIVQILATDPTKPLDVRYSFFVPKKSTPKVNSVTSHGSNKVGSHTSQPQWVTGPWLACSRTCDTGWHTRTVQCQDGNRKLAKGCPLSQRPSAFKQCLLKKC

[2] = molecular target: T1, Recombinant human ADAMTS-5 (adamalysin …); remark: listed apart in the source
[3] = molecular target: T2, ADAMTS5-2 (ADAMTS-5 lacking the C-terminal TS-2 domain) (human, UniProt Q9UNA0 262-874)
T2 sequence (looked up): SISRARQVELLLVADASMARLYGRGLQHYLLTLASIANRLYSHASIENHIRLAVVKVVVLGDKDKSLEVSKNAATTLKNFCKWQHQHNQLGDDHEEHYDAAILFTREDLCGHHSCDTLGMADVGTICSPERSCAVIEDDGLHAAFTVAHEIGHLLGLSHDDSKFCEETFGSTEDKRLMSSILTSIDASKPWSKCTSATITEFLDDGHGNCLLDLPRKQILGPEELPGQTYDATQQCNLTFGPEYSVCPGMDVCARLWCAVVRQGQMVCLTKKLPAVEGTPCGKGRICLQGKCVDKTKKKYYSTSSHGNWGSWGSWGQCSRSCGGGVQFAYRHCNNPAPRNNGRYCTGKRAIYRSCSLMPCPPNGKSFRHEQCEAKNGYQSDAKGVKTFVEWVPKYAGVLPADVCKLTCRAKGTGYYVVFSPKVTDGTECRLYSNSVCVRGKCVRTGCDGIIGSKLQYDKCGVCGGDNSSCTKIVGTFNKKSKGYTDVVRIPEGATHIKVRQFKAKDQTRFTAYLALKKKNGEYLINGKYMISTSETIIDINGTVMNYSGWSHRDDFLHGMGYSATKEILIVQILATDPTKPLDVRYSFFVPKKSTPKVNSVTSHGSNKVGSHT

[4] = molecular target: T3, MMP (matrix metalloproteinase)-1 catalytic domain (UniProt P03956 100-269)
T3 sequence (looked up): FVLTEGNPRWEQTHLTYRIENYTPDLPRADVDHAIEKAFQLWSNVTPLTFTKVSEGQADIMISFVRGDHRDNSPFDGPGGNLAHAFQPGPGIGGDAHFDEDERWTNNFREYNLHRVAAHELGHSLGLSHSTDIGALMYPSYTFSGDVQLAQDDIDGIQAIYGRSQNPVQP

MMP-3 catalytic domain = MMP-3 catalytic domain (UniProt P08254 100-272)
MMP-2 = molecular target: T4, MMP-2 (UniProt P08253 110-660)
T4 sequence (looked up): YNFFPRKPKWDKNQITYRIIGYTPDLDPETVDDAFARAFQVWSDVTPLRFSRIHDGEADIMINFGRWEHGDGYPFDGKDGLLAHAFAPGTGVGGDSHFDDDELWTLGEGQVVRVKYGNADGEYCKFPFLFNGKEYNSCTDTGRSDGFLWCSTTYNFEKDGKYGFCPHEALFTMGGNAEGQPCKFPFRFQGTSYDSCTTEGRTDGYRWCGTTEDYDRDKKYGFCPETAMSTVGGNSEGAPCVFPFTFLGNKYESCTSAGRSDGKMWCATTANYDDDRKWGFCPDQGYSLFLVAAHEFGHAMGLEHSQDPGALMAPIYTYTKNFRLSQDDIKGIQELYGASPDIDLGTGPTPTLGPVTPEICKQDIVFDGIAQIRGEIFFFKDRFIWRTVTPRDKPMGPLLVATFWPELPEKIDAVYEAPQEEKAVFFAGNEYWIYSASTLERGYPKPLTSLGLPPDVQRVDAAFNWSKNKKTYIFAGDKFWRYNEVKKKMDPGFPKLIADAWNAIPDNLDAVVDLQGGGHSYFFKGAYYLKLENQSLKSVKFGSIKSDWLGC

Chain of MMP-3 catalytic domain (P08254 100-272): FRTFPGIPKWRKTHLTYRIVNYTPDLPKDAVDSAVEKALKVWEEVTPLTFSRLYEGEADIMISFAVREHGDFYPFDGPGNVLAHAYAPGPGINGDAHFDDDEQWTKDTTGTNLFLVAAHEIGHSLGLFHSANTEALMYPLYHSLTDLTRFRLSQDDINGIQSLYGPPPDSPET

Ki [1]: 522 ± 0.24 nM
Ki [2]: 734 ± 0.16 nM
B1: TIMP-1 (tissue inhibitor of metalloproteinases 1) (natural protein)
chain: not shown

Ki [3]: 1.34 ± 0.04 nM
B2: TIMP-3(K26/27/30/76E+R163/K165Q) (natural protein, human, UniProt P35625 24-211, looked up)
chain: CTCSPSHPQDAFCNSDIVIRAKVVGEELVEEGPFGTLVYTIKQMKMYRGFTKMPHVQYIHTEASESLCGLKLEVNEYQYLLTGRVYDGKMYTGLCNFVERWDQLTLSQRKGLNYRYHLGCNCKIKSCYYLPCFVTSKNECLWTDMLSNFGYPGYQSKHYACIQQQGGYCSWYRGWAPPDKSIINATDP

Ki [4]: 0.43 ± 0.12 nM
Ki (MMP-3 catalytic domain): 0.9 ± 0.28 nM
Ki (MMP-2): 0.16 ± 0.002 nM
Ki [2]: 0.56 ± 0.03 nM
B3: Recombinant human TIMP-3 (tissue inhibitor of metalloproteinases 3) (natural protein, UniProt P35625 24-211, looked up)
chain: B2 chain with E26K, E27K, E30K, E76K, Q163R, Q165K
